Source: PMC10350922, “Allosteric Inhibitors of Macrophage Migration Inhibitory Factor (MIF) Interfere with Apoptosis-Inducing Factor (AIF) Co-Localization to Prevent Parthanatos”

Target: MIF (ZP307-labeled) (human, UniProt P14174 2-115)
Experiment: competition; competes with PA20-Q1, dose-dependent; 5 mM Mg2+; 100 mM Tris, 5 mM MgCl2, 5 mM KCl, pH 8.2; 1 uM labeled MIF, 1 uM PA20-Q1; inhibitor preincubation at rt
Settings: protein: recombinant; tags: C-terminal His-tagged and untagged both made; chain copies: 3; single strand

B1: PA20 (ssDNA)
DNA: AAAAAAAAAAAAAAAAAAAA
  binding result: binds
